Reference: the supplement of paper PMC9112550, “Optimization of the antimicrobial peptide Bac7 by deep mutational scanning” (BMC Biology, 2022)

Test system: Escherichia coli TOP10
Assay: shrunken log2 fold change of peptide-encoding DNA abundance (4.5 h post-induction vs induction); higher = less antimicrobial activity (less host growth inhibition)
Conditions: time post-induction: 4.5 h; library: site-saturation at positions 5, 18, 19, 20
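Note: peptides expressed intracellularly from a pBAD plasmid library in pooled LB shake-flask culture, induced with 0.3% L-arabinose, DNA abundance read by NGS, three biological replicates, DESeq2 with apeglm shrinkage.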

Sequence	shrunken log2 fold change
RRIRERPPRLPRPRPRPVKQPRP	-0.0109
RRIRMRPPRLPRPRPRPVVEPRP	0.719
RRIRQRPPRLPRPRPRPTWTPRP	-0.0772
RRIRMRPPRLPRPRPRPSAGPRP	0.655
RRIRVRPPRLPRPRPRPCAGPRP	-0.106
RRIRLRPPRLPRPRPRPLGQPRP	0.0405
RRIRKRPPRLPRPRPRPTEYPRP	0.0661
RRIRRRPPRLPRPRPRPAVSPRP	-0.136
RRIRFRPPRLPRPRPRPTKKPRP	-0.0226
RRIRGRPPRLPRPRPRPCIQPRP	-0.0256
RRIRWRPPRLPRPRPRPWIKPRP	-0.203
RRIRNRPPRLPRPRPRPWSCPRP	-0.42
RRIRSRPPRLPRPRPRPNWMPRP	-0.0249
RRIRKRPPRLPRPRPRPKVDPRP	0.00437
RRIRYRPPRLPRPRPRPRMWPRP	0.0356
RRIRPRPPRLPRPRPRPYIGPRP	-0.184
RRIRSRPPRLPRPRPRPAELPRP	0.0682
RRIRYRPPRLPRPRPRPCGKPRP	-0.0542
RRIRNRPPRLPRPRPRPKQHPRP	-0.253
RRIRMRPPRLPRPRPRPTPFPRP	0.715
RRIRYRPPRLPRPRPRPDWHPRP	-0.32
RRIRIRPPRLPRPRPRPAMNPRP	-0.495
RRIRVRPPRLPRPRPRPIEPPRP	-0.065
RRIRNRPPRLPRPRPRPKNWPRP	0.168
RRIRHRPPRLPRPRPRPQHLPRP	-0.358

Sequence	shrunken log2 fold change
RRIRKRPPRLPRPRPRPYLQPRP	-0.599
RRIRTRPPRLPRPRPRPVYNPRP	-0.239
RRIRRRPPRLPRPRPRPVTNPRP	0.266
RRIRGRPPRLPRPRPRPSNPPRP	0.14
RRIRNRPPRLPRPRPRPEQKPRP	-0.00208
RRIRKRPPRLPRPRPRPCYVPRP	-0.69
RRIRPRPPRLPRPRPRPHWLPRP	-0.0232
RRIRNRPPRLPRPRPRPPHPPRP	0.292
RRIRSRPPRLPRPRPRPVDLPRP	-0.199
RRIRGRPPRLPRPRPRPIPLPRP	0.16
RRIRPRPPRLPRPRPRPDSWPRP	0.392
RRIRYRPPRLPRPRPRPKCDPRP	-0.529
RRIRFRPPRLPRPRPRPENSPRP	-3.45e-05
RRIRLRPPRLPRPRPRPMDPPRP	0.0507
RRIRFRPPRLPRPRPRPNRWPRP	0.0144
RRIRGRPPRLPRPRPRPQMQPRP	1.04
RRIRHRPPRLPRPRPRPYPDPRP	0.0372
RRIRMRPPRLPRPRPRPIHNPRP	-0.58
RRIRTRPPRLPRPRPRPYHEPRP	-0.0196
RRIRMRPPRLPRPRPRPVPCPRP	0.291
RRIRTRPPRLPRPRPRPMNHPRP	-0.0849
RRIRGRPPRLPRPRPRPFGVPRP	0.446
RRIRERPPRLPRPRPRPVPHPRP	-0.0329
RRIRMRPPRLPRPRPRPYWAPRP	-0.0573
RRIRFRPPRLPRPRPRPAPQPRP	0.666

Sequence	shrunken log2 fold change
RRIRWRPPRLPRPRPRPGQDPRP	0.334
RRIRHRPPRLPRPRPRPMMKPRP	0.0118
RRIRRRPPRLPRPRPRPMMMPRP	0.0332
RRIRVRPPRLPRPRPRPHDNPRP	-0.445
RRIRPRPPRLPRPRPRPTYQPRP	-0.0514
RRIRTRPPRLPRPRPRPCYVPRP	-0.89
RRIRNRPPRLPRPRPRPFKEPRP	-0.161
RRIRVRPPRLPRPRPRPPCGPRP	0.297
RRIRPRPPRLPRPRPRPRQKPRP	0.0891
RRIRVRPPRLPRPRPRPYNGPRP	-0.514
RRIRWRPPRLPRPRPRPVNAPRP	0.0945
RRIRPRPPRLPRPRPRPDYLPRP	-0.259
RRIRQRPPRLPRPRPRPCTAPRP	0.139
RRIRKRPPRLPRPRPRPYMLPRP	-0.579
RRIRNRPPRLPRPRPRPCDEPRP	-0.035
RRIRARPPRLPRPRPRPEPLPRP	0.284
RRIRGRPPRLPRPRPRPWSVPRP	-0.131
RRIRTRPPRLPRPRPRPNRMPRP	-0.331
RRIRARPPRLPRPRPRPCWDPRP	-0.102
RRIRQRPPRLPRPRPRPGEPPRP	-0.00996
RRIRKRPPRLPRPRPRPPCEPRP	0.509
RRIRGRPPRLPRPRPRPRDFPRP	0.619
RRIRPRPPRLPRPRPRPYLSPRP	-0.509
RRIRDRPPRLPRPRPRPCSAPRP	0.45
RRIRKRPPRLPRPRPRPHGSPRP	-0.0695

Sequence	shrunken log2 fold change
RRIRPRPPRLPRPRPRPHPLPRP	0.0451
RRIRNRPPRLPRPRPRPEGFPRP	0.0136
RRIRGRPPRLPRPRPRPRALPRP	0.852
RRIRSRPPRLPRPRPRPVKIPRP	-0.131
RRIRMRPPRLPRPRPRPWHWPRP	0.0862
RRIRKRPPRLPRPRPRPDYGPRP	0.111
RRIRDRPPRLPRPRPRPMAPPRP	0.982
RRIRCRPPRLPRPRPRPQMFPRP	-0.155
RRIRPRPPRLPRPRPRPFGCPRP	-0.144
RRIRQRPPRLPRPRPRPSKHPRP	-0.641
RRIRPRPPRLPRPRPRPALQPRP	0.0721
RRIRTRPPRLPRPRPRPDSHPRP	-0.153
RRIRDRPPRLPRPRPRPLIDPRP	0.0319
RRIRWRPPRLPRPRPRPSDVPRP	-0.545
RRIRYRPPRLPRPRPRPHHGPRP	0.0431
RRIRIRPPRLPRPRPRPKSHPRP	-0.451
RRIRFRPPRLPRPRPRPAALPRP	-0.0867
RRIRDRPPRLPRPRPRPHIFPRP	-0.361
RRIRGRPPRLPRPRPRPVNQPRP	0.35
RRIRTRPPRLPRPRPRPEVGPRP	0.0668
RRIRARPPRLPRPRPRPDGSPRP	0.0886
RRIRIRPPRLPRPRPRPPDPPRP	0.243
RRIRLRPPRLPRPRPRPWVSPRP	0.442
RRIRCRPPRLPRPRPRPAPGPRP	0.75
RRIRPRPPRLPRPRPRPLMYPRP	-0.318

Sequence	shrunken log2 fold change
RRIRERPPRLPRPRPRPPFIPRP	-0.299
RRIRVRPPRLPRPRPRPHKTPRP	-0.127
RRIRWRPPRLPRPRPRPETVPRP	-0.0769
RRIRPRPPRLPRPRPRPTESPRP	-0.041
RRIRDRPPRLPRPRPRPIYTPRP	-0.105
RRIRDRPPRLPRPRPRPAKNPRP	-0.119
RRIRHRPPRLPRPRPRPRVQPRP	0.054
RRIRRRPPRLPRPRPRPMRDPRP	0.62
RRIRARPPRLPRPRPRPFPCPRP	0.0215
RRIRFRPPRLPRPRPRPALFPRP	0.173
RRIRMRPPRLPRPRPRPRCSPRP	0.393
RRIRDRPPRLPRPRPRPRNEPRP	0.00109
RRIRWRPPRLPRPRPRPDHFPRP	-0.0288
RRIRYRPPRLPRPRPRPVNTPRP	-0.473
RRIRTRPPRLPRPRPRPMQVPRP	-0.21
RRIRYRPPRLPRPRPRPEFMPRP	-0.0255
RRIRTRPPRLPRPRPRPIHQPRP	0.0323
RRIRPRPPRLPRPRPRPSTQPRP	-0.355
RRIRERPPRLPRPRPRPDIKPRP	-0.248
RRIRVRPPRLPRPRPRPLLKPRP	0.0167
RRIRRRPPRLPRPRPRPNCVPRP	0.245
RRIRFRPPRLPRPRPRPSKPPRP	-0.0327
RRIRCRPPRLPRPRPRPITIPRP	-0.261
RRIRGRPPRLPRPRPRPHHGPRP	0.0719
RRIRTRPPRLPRPRPRPMKTPRP	0.0208

Sequence	shrunken log2 fold change
RRIRVRPPRLPRPRPRPQKFPRP	-0.278
RRIRQRPPRLPRPRPRPICGPRP	-0.0167
RRIRIRPPRLPRPRPRPNKMPRP	-0.464
RRIRARPPRLPRPRPRPWLKPRP	-0.0421
RRIRQRPPRLPRPRPRPHFHPRP	-0.396
RRIRRRPPRLPRPRPRPGPFPRP	0.162
RRIRGRPPRLPRPRPRPESPPRP	1.25
RRIRNRPPRLPRPRPRPYVQPRP	-0.0341
RRIRDRPPRLPRPRPRPHMNPRP	0.001
RRIRTRPPRLPRPRPRPHDRPRP	-0.00195
RRIRFRPPRLPRPRPRPINDPRP	-0.241
RRIRIRPPRLPRPRPRPGPWPRP	0.0988
RRIRKRPPRLPRPRPRPWQPPRP	0.0588
RRIRCRPPRLPRPRPRPASYPRP	-0.295
RRIRGRPPRLPRPRPRPGIQPRP	0.591
RRIRARPPRLPRPRPRPPPAPRP	1.25
RRIRIRPPRLPRPRPRPHSPPRP	-0.161
RRIRSRPPRLPRPRPRPDYIPRP	-0.443
RRIRVRPPRLPRPRPRPKPEPRP	0.326
RRIRNRPPRLPRPRPRPYMTPRP	-0.509
RRIRSRPPRLPRPRPRPREAPRP	0.587
RRIRERPPRLPRPRPRPWATPRP	0.127
RRIRTRPPRLPRPRPRPIHLPRP	0.0312
RRIRWRPPRLPRPRPRPLACPRP	0.206
RRIRSRPPRLPRPRPRPEWKPRP	0.14
